Reference: the domain aggregation screens of Martell et al. (2025)

Assay: soluble fraction after stress (log2 fold change); higher = more stays soluble; pooled small domains, quantitative proteomics
Conditions: stress: 75 degC
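Also: 20 min heating vs room temperature control held 20 min.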

Sequence: HMRGPPQVLVDVELEDGRVGQIGVRNGDDATELAETFVRAFRLEQSFVGRLANVIQGKIRELLHSQ
- soluble fraction (log2): -1.74

Sequence: HMYVQDPVDRLVLESALRLLREQEREIIFLHLVAGLKHREIAGLLHLPLSTVLSGYRRALTKMKSYLEE
- soluble fraction (log2): -0.0135

Sequence: HMRPEARAASLSDEERKIFDYLAANGEKTIDNISVAVKMSAADILKNITLMSAKGLVYMPSAGRYGVKGN
- soluble fraction (log2): -0.297

Sequence: HMTKIDYSINQIYSLRNIENITIVLKDKRSFTGKILKIYWQNGSKIILFTTETRNYKFKEYEISEIYKS
- soluble fraction (log2): -1.02

Sequence: HMAEVGDFTLAELIKVLFNEAGVLKAPVELRNDNTGGLQYRVGAYTDSETGWETIASIADLKGA
- soluble fraction (log2): -0.734

Sequence: HMKNLNVIDLSALRTLELKESSDWTLIQKRFKLLVKKYHPDMNAGSKQYEEKLKKITLAYTHLKKLF
- soluble fraction (log2): -2.67

Sequence: HMNIIHNPSKNFIESDLNDLKEGMEIEHKKFGYGLIKSIDKTQNHQKAVVNFKLVGEKTLLLSFARLRIV
- soluble fraction (log2): -3.15

Sequence: HMGDGYTYYYDDTVLALGFTKIGNDYYIFNTFSGKMYKDATMWVNDNPYGIKGGMHYFDASGKMFV
- soluble fraction (log2): 0.215

Sequence: HMPTLLGYKHILSAWNPDTNTVFRTSYGYDGEYGSREEAMQALIKMIQEGGKATPRGIEESEVPIY
- soluble fraction (log2): -0.238

Sequence: HMFDGTLSIYPNPSKGIFNLDLLNVKDGEYTITVDNLLGQEVYSEIRNVINSSSKTLDLSNLTKGV
- soluble fraction (log2): -0.204

Sequence: HMDINIETLNYYVGKAKIPLSELRISVKNIDLFLSGEKQPTFNQLSSIAKKLNIPTGLLLLDESIEV
- soluble fraction (log2): -3

Sequence: HMSKETTYEVLSLKGDEWQTDTIYSDRDEAIEAARNLHGDPHIDGAKVISEVYDDKTGGSKETTIFNT
- soluble fraction (log2): 0.535

Sequence: HMDELIKQVANYIINNRATINETAGAFGKSVSSIKKYINDADKLQRIDFELYQKVKEVQKIVELNGQI
- soluble fraction (log2): -0.396

Sequence: HMGGPAGPDFTYTGDDLTRIDYDDGSYKVFTYDAGKLSQIDFTSGGTTTRKTFVYSGDTLIRVDQTI
- soluble fraction (log2): -0.179

Sequence: HMKQTMIVVMEKDAPQSQIDDMVKRIEGLGLKAHTIVGTQRTVVAAIGEKREDTRESLAGSPGVAEVVPIL
- soluble fraction (log2): 0.239

Sequence: HMGTHVVQEGEYLDLIIEKTIPGSPIRKDLLRKAFVKLNPSAFGGRGNPNYIFARKKLKVPSVEDLKAVIF
- soluble fraction (log2): 0.127

Sequence: HMEENIKKDIEVPNIEGLTIDEAKKRLKEVNLNISIEDMEEKEGTEIITQQLPKAGIKVKEGVAIIAY
- soluble fraction (log2): 0.227

Sequence: HMDLPATVPNLEGLTEVTARNKLTVAGLSLGEVKEVESDKEKGTVVGQSIAYGKRVTKGTKVDIEISSGK
- soluble fraction (log2): 0.194

Sequence: HMLADTNIHTIALKHRLANEVVEQVRPFLPETATIRAYDNMLILKSDRATLANVEQLIKKLDT
- soluble fraction (log2): 0.0428

Sequence: HMQGIPVTVTAERANLRSGPGTSFDKLGQVVQGDVLTLLEVQNDWYKVKTAEGKTAFVAAYLVNSP
- soluble fraction (log2): -0.269

Sequence: HMAPAGGITRQDLFAWGLMGGEGSREKRQQLKKSLGLPSHLGTSGFLDALNLIATRDQVEALLHK
- soluble fraction (log2): -0.564

Sequence: HMKSLAQELVDALGDRIRDGRLKVGDKLPSEAAIEAQYGVSRTVVREAISRLQAAGLVVTRHGIGTFIVGI
- soluble fraction (log2): -2.45

Sequence: HMINSFDYLQAIFTELMKSQSKMTNQDAAKRLFMQGKVAVSNRDREGLRMVLAQLVTLLPKEELGGLSTVS
- soluble fraction (log2): -1.38

Sequence: HMDEYGEVQALQRAGQTSEALARADRHIAAHPNDPQMRFVKANLLSAGGRAGEAETLLVQLTRD
- soluble fraction (log2): -0.0543

Sequence: HMIAGHLQIKNDYYYMVLSYTDSDGKRKQPWIPTGLPMKGNKKRAEKMLIETRQTYVPPVSSG
- soluble fraction (log2): -3.41

Sequence: HMSTSEQVYTTDKVNVRREADTSSEKLGSLEKGTAISRTGTEGEWSVVNYGGVTGYIKTEFLTTEQPQ
- soluble fraction (log2): 0.63

Sequence: HMRDYDFGNLLYKLRIESGYTQKDIADMLGVTDKAVSKWENGIAKPTTNNIKLLSTIYNVSVEELLNG
- soluble fraction (log2): -1.19

Sequence: HMEVPFRNAAIFKTRSGDYAIRASYDGVDLGIKPIEKSTARTYFQLTDVKDKESFLNMTARNQYESEIAGI
- soluble fraction (log2): -0.0612

Sequence: HMDLTKLFDHDSEYGKSYVFGKITDEMIARAEQTLGYRMPASYIELLKVQNGGMISDELDESWLTTIYGIG
- soluble fraction (log2): -0.359

Sequence: HMIINFDAIRLTTELNKYNRHKAIPNSFFDGTFTILDVRDLYDSLSPKVQKIADTLIEQYNVDVKQ
- soluble fraction (log2): -1.82

Sequence: HMKTGNIITVSLVWKGKYYMIRMFFPSASRPTRSDVQNEIEKVYPGSKLSTFSVSDYEPGQPLLQV
- soluble fraction (log2): -1.6

Sequence: HMHEAILNQIRNEELMLYIGELSDAQQDVILLKYFHQMTFKEIAESFSIPISTVKTRHTAALKKLSTLWK
- soluble fraction (log2): -0.36

Sequence: HMDNVINDGMQVRFTGNVDINGTPLKIYDRIYTAEGISDDTVVLMLGNDVYARVYLSDVVPAD
- soluble fraction (log2): -0.975

Sequence: HMEDPAVYYKILQIPPDASLSEIHRAFEKITSAWDPERYPHISSWKETSAKKLQEIRNAYEKLLILRETG
- soluble fraction (log2): -0.269

Sequence: HMRPYAYGTGRRKSSTARVHLIPNGSGSITINGRTLDEYFGLETLKLIVRQPLAATETAEKFDVEATVV
- soluble fraction (log2): -0.638

Sequence: HMKIQISGSQRIDENVVVKVAGLSFPQSLLSLEPGQIESKLMQELPVQEVSVQRRLLPPGLDIQLVE
- soluble fraction (log2): -0.0996

Sequence: HMGKTTQEIEERSSTSTLTLTQTPKEIISVQGKKSDQSFFTNIQYTQNGKVIVPKQTGIYDTIKVVFTVSL
- soluble fraction (log2): -1.48

Sequence: HMLRNDEAVMLGRRLLNKHLQAFSVQIKDISHQRIHDLLDELELESLDHLLDDIGLGNRSVFLVAQKLLQ
- soluble fraction (log2): -1.48

Sequence: HMEFEIGQEDSKKSVKQFLYNTLRLSHGQVTALKRQERGILLNGERVFVTALLQEGDRLSLLLE
- soluble fraction (log2): -1.7

Sequence: HMGIQYVASGHYARMETDAQGVSRLFPPESGAPDESDRLAALSPEVLTRLILPLGDFAPEDVEEMAVD
- soluble fraction (log2): -0.0745

Sequence: HMSERQTGTVKWFNNAKGFGFITMADRPDDIFVHFRAIQGDGYRSLNEGEEVEFSLVEGPKGLQAEEVTK
- soluble fraction (log2): -0.0682

Sequence: HMKIYDQVVDRIKDRISKGDMPQGSALPPERQLIDELNVSRSSLREGFRILEMMGLIESIPGKGRFVRTSR
- soluble fraction (log2): -0.607

Sequence: HMRVDDITDTILNVLKEQGGFISVTDKSSPETINKLFGVSKKTYKKAIGAIYRKKLIIIEDDGIRLNS
- soluble fraction (log2): -2.4

Sequence: HMHAPIAELKKVFKEEFADQEVTVRQLAGSVLLSGNVKTAELRENLESVAKQFFPRVINNLKLI
- soluble fraction (log2): -0.444

Sequence: HMSSFRDISGTVYVKASAANLRSEPNTSSLIVDTLYYGASLQRISTNDIWTKVKTGNGQIGFMDNSLFQT
- soluble fraction (log2): -3.12

Sequence: HMQTQYIVDTKTTLLVRTGPGKSNSQFGRLKNGETINVYAIKNGWAEISYNGKTGYVSEQYIKLA
- soluble fraction (log2): -3.59

Sequence: HMSEQLKQIAERIKELRNIAGLGEEELAAKLDIPVDTYREYESGNVDIPVSFLYKISGMFNVELTAIL
- soluble fraction (log2): -1.1

Sequence: HMPKTATIVIDLNYADAKEIVENLQTILAGETKDISVAPHPSANQIIASGDRWEVENISTIIKQLDR
- soluble fraction (log2): 0.26

Sequence: HMREEIESVYKTLAVTEIPYIARGNSARLGSGIQTVYDFYRMEGMQVSKILGRNGSVLWLELHG
- soluble fraction (log2): 0.0223

Sequence: HMYEVVPNMRGLTYNQATAALAAAGLKVELSDSIYDEHTQPGTVLDQSPRPNTKVKPNRVVYLTVNAF
- soluble fraction (log2): -1.1

Sequence: HMNEVETWSVQADGATGRIDKWLAEQNEWSRSQVQEWLKAGRVEVDGRVVKPNYKLSGTESIAVHIPEAV
- soluble fraction (log2): -0.244

Sequence: HMDSNPLSEREQEVLQLVAKGASNQTIAEQLFLSNGTIRNYMTAIFNKLNANNRTDAVRIARENGW
- soluble fraction (log2): -0.207

Sequence: HMNRITEFVVPEGTKKIRADKLLAESFPDHSRSDFHRAFDASLVRLEGQPISKNRKISQGDVLVFEMPEI
- soluble fraction (log2): 0.505

Sequence: HMAGAPANLAARLREQILQGAYHDGQRLPAERHLAAEHGVSRGTVREALRLLEQGALLTRKRGSGSYVTYP
- soluble fraction (log2): -0.516

Sequence: HMKESRLFRILYYLLQHKKATAPELAEEFEVSVRTIYRDIDYISSAGVPIYATQGKDGGIAILDSF
- soluble fraction (log2): -0.777

Sequence: HMNEKTGTLTVYSSPGWAKVYIDGEYKGITPVMANLTYGDHYVKLTLDGYDSIGNHIDVNSPDQSYTGKF
- soluble fraction (log2): -0.768

Sequence: HMETINERVNSIIEREGHTVATFAKKIGVPWTTIKNIVSGRNAPSYDIMVKIINAVDWVDANYLVMG
- soluble fraction (log2): -2.59

Sequence: HMFAADIGVGIVDADSLRVRSEPSTGAPIVTSLLRGTQVTVQEKLDGWYRITYNDVSGFVSAEYLIFTADE
- soluble fraction (log2): -0.358

Sequence: HMAVTFPYTAYATDAVRLRERPSSSADVLAVIRKGDAVLVTGTDGNYAIVDYEGKRGYVVSSFIAT
- soluble fraction (log2): -0.522

Sequence: HMEMDITIQMRTLVEELNRASDAYYNGRGELMTDYEWDAKFDQLKQLESQSGVVLPDSPTHRV
- soluble fraction (log2): -0.244

Sequence: HMKIPYGELIKLLNAAAPKLQDAQGWMDMEAAGQFIGSRWSYLDYGFKDWPDSFKTVHGLEIQGQRMRLA
- soluble fraction (log2): -0.577

Sequence: HMRQSKMREAILAAVSAQKLEISDLHVWRIGEQRYAAIIGLATTQAESVSALRDSLAQMDKLVHLTIDQ
- soluble fraction (log2): -2.21

Sequence: HMESRMTYLQKTKLATENLDAKLIDHQQWVAEVLGEDYRGVYSDEYLRRAAKVFAIFVNNLDD
- soluble fraction (log2): -2.53

Sequence: HMEEEDELALFLREERKNYDLTLTDVHEKTGIPQKVLKEFQWGDAQLTDRQRYTLTQYVEEAREYFQENA
- soluble fraction (log2): 0.161

Sequence: HMKKNTEALDYYKKAGANFPEDEVISSEYLFRAAQLQEVLGKTDEAVAIYKDIKAKYPTTEIGLNVDKFIL
- soluble fraction (log2): 0.0379

Sequence: HMGNIKVPSVMGMTLEGAEKVAKDNGAVIEVLEYKESTEEDGTIIEQSPKADMTVATLEKISVVISGK
- soluble fraction (log2): 0.161

Sequence: HMAPDAPDGFVHRWIRAEMLGQEDKSNVHRRMQEGYELVRADEYPDSDLPVAEGRYAGIIGVGGLLLARF
- soluble fraction (log2): -0.206

Sequence: HMGMVKLNEEYLEKVKKHRKELHITQLQISKKLGWSLSRYQRFESGFYKEIEDDAPKKIKEEFGIDYSLL
- soluble fraction (log2): -0.726

Sequence: HMTVSADQTTADAVIKLIDAIGTVSKNSGSAISAARSGYDALTDAQKKLVTNYNKLTQAEQVFSSLS
- soluble fraction (log2): 0.494

Sequence: HMNEPMITEVKRINYGSIKEIAKNLDVFKGKNGTVIIDERTNTLILTDLSENIEKMLWSIEITD
- soluble fraction (log2): -0.927

Sequence: HMNNKVAVKSGYYFELFDKDEIPATLEKMKQKVKIDNIKYDLYQGTSLEDERKIDTMFGEKMGYSIDDYI
- soluble fraction (log2): -0.0968

Sequence: HMKHSLNHLGLWLLPELSRRDIQLREFAHLLGTTSQGLSDLLRGQRFSSHTLAQWQLRFQEKLDEIDQAS
- soluble fraction (log2): -1.99

Sequence: HMPLYKYYTSYQIEPGDTLTSIAQKYTINSDVSVQDYIDEVKKNNNLVSDKINSGSYLVVSYYSNEY
- soluble fraction (log2): -1.36

Sequence: HMSMFAQQLKDLRKKIPGLTQTDMAKKLGIAKTTYASYEQGKRTPDIETQNKIADFFNVSLDYLHG
- soluble fraction (log2): -0.302

Sequence: HMAPTGTDRQTPHTRDELYLVLSGTGTFVNGDARHPFGPGDALFVPAGAEHRFEDFSDDFRTWVVFYGAEG
- soluble fraction (log2): -0.163

Sequence: HMLSYDDTVVIGRNLLENAMKQKNIALEQLTDEVLARLAKELQVESVEAMYAGIGSGKRPSSFIINRLEAH
- soluble fraction (log2): -0.75
